B1: DVD1630 (bispecific antibody, human IgG1, kappa)
heavy: not shown
light: EIVLTQSPDFQSVTPKEKVTITCRASQDIGSELHWYQQKPDQPPKLLIKYASHSTSGVPSRFSGSGSGTDFTLTINGLEAEDAGTYYCHQTDSLPYTFGPGTKVDIKRTVAAPDIQMTQSPSSLSASVGDRVTITCRASGNIHNYLTWYQQTPGKAPKLLIYNAKTLADGVPSRFSGSGSGTDYTFTISSLQPEDIATYYCQHFWSIPYTFGQGTKLQITRTVAAPSVFIFPPSDEQLKSGTASVVCLLNNFYPREAKVQWKVDNALQSGNSQESVTEQDSKDSTYSLSSTLTLSKADYEKHKVYACEVTHQGLSSPVTKSFNRGEC
notes: V1 wt hIgG1, V2 kappa; also called DVD1630H; DVD1630L
B2: DVD1632 (bispecific antibody, human IgG1, kappa)
heavy: not shown
light: EIVLTQSPDFQSVTPKEKVTITCRASQDIGSELHWYQQKPDQPPKLLIKYASHSTSGVPSRFSGSGSGTDFTLTINGLEAEDAGTYYCHQTDSLPYTFGPGTKVDIKRTVAAPDIQMTQSPSSLSASVGDRVTITCRASGNIHNYLTWYQQTPGKAPKLLIYNAKTLADGVPSRFSGSGSGTDYTFTISSLQPEDIATYYCQHFWSIPYTFGQGTKLQITRTVAAPSVFIFPPSDEQLKSGTASVVCLLNNFYPREAKVQWKVDNALQSGNSQESVTEQDSKDSTYSLSSTLTLSKADYEKHKVYACEVTHQGLSSPVTKSFNRGEC
notes: V1 wt hIgG1, V2 kappa; also called DVD1632H; DVD1632L
B3: DVD1266 (bispecific antibody, human IgG1, kappa)
heavy: not shown
light: DTQVTQSPSSLSASVGDRVTITCITSTDIDVDMNWYQQKPGKPPKLLISQGNTLRPGVPSRFSSSGSGTDFTFTISSLQPEDFATYYCLQSDNLPLTFGQGTKLEIKRTVAAPDIQMTQSPSSLSASVGDRVTITCRASSGIISYIDWFQQKPGKAPKRLIYATFDLASGVPSRFSGSGSGTDYTLTISSLQPEDFATYYCRQVGSYPETFGQGTKLEIKRTVAAPSVFIFPPSDEQLKSGTASVVCLLNNFYPREAKVQWKVDNALQSGNSQESVTEQDSKDSTYSLSSTLTLSKADYEKHKVYACEVTHQGLSSPVTKSFNRGEC
notes: DVD-Ig, outer AB270, inner AB273, linker set 1; V1 wt hIgG1, V2 kappa; also called DVD1266H; DVD1266L
B4: DVD1270 (bispecific antibody, human IgG1, kappa)
heavy: not shown
light: ETTVTQSPSSLSASVGDRVTITCITSTDIDVDMNWYQQKPGKPPKLLISQGNTLRPGVPSRFSSSGSGTDFTFTISSLQPEDFATYYCLQSDNLPLTFGQGTKLEIKRTVAAPDIQMTQSPSSLSASVGDRVTITCRASSGIISYIDWFQQKPGKAPKRLIYATFDLASGVPSRFSGSGSGTDYTLTISSLQPEDFATYYCRQVGSYPETFGQGTKLEIKRTVAAPSVFIFPPSDEQLKSGTASVVCLLNNFYPREAKVQWKVDNALQSGNSQESVTEQDSKDSTYSLSSTLTLSKADYEKHKVYACEVTHQGLSSPVTKSFNRGEC
notes: DVD-Ig, outer AB272, inner AB273, linker set 1; V1 wt hIgG1, V2 kappa; also called DVD1270H; DVD1270L
B5: DVD1276 (bispecific antibody, human IgG1, kappa)
heavy: not shown
light: DTQVTQSPSSLSASVGDRVTITCITSTDIDVDMNWYQQKPGKPPKLLISQGNTLRPGVPSRFSSSGSGTDFTFTISSLQPEDFATYYCLQSDNLPLTFGQGTKLEIKRTVAAPEIVLTQSPDFQSVTPKEKVTITCRASQDIGSELHWYQQKPDQPPKLLIKYASHSTSGVPSRFSGSGSGTDFTLTINGLEAEDAGTYYCHQTDSLPYTFGPGTKVDIKRTVAAPSVFIFPPSDEQLKSGTASVVCLLNNFYPREAKVQWKVDNALQSGNSQESVTEQDSKDSTYSLSSTLTLSKADYEKHKVYACEVTHQGLSSPVTKSFNRGEC
notes: DVD-Ig, outer AB270, inner AB274, linker set 1; V1 wt hIgG1, V2 kappa; also called DVD1276H; DVD1276L
B6: DVD1280 (bispecific antibody, human IgG1, kappa)
heavy: not shown
light: ETTVTQSPSSLSASVGDRVTITCITSTDIDVDMNWYQQKPGKPPKLLISQGNTLRPGVPSRFSSSGSGTDFTFTISSLQPEDFATYYCLQSDNLPLTFGQGTKLEIKRTVAAPEIVLTQSPDFQSVTPKEKVTITCRASQDIGSELHWYQQKPDQPPKLLIKYASHSTSGVPSRFSGSGSGTDFTLTINGLEAEDAGTYYCHQTDSLPYTFGPGTKVDIKRTVAAPSVFIFPPSDEQLKSGTASVVCLLNNFYPREAKVQWKVDNALQSGNSQESVTEQDSKDSTYSLSSTLTLSKADYEKHKVYACEVTHQGLSSPVTKSFNRGEC
notes: DVD-Ig, outer AB272, inner AB274, linker set 1; V1 wt hIgG1, V2 kappa; also called DVD1280H; DVD1280L
B7: DVD1628 (bispecific antibody, human IgG1, kappa)
heavy: not shown
light: DIQMTQSPSSLSASVGDRVTITCRASSGIISYIDWFQQKPGKAPKRLIYATFDLASGVPSRFSGSGSGTDYTLTISSLQPEDFATYYCRQVGSYPETFGQGTKLEIKRTVAAPETTVTQSPSSLSASVGDRVTITCITSTDIDVDMNWYQQKPGKPPKLLISQGNTLRPGVPSRFSSSGSGTDFTFTISSLQPEDFATYYCLQSDNLPLTFGQGTKLEIKRTVAAPSVFIFPPSDEQLKSGTASVVCLLNNFYPREAKVQWKVDNALQSGNSQESVTEQDSKDSTYSLSSTLTLSKADYEKHKVYACEVTHQGLSSPVTKSFNRGEC
notes: DVD-Ig, outer AB273, inner AB272, linker set 3; V1 wt hIgG1, V2 kappa; also called DVD1628H; DVD1628L
B8: DVD1272 (bispecific antibody, human IgG1, kappa)
heavy: not shown
light: DIQMTQSPSSLSASVGDRVTITCRASGNIHNYLTWYQQTPGKAPKLLIYNAKTLADGVPSRFSGSGSGTDYTFTISSLQPEDIATYYCQHFWSIPYTFGQGTKLQITRTVAAPEIVLTQSPDFQSVTPKEKVTITCRASQDIGSELHWYQQKPDQPPKLLIKYASHSTSGVPSRFSGSGSGTDFTLTINGLEAEDAGTYYCHQTDSLPYTFGPGTKVDIKRTVAAPSVFIFPPSDEQLKSGTASVVCLLNNFYPREAKVQWKVDNALQSGNSQESVTEQDSKDSTYSLSSTLTLSKADYEKHKVYACEVTHQGLSSPVTKSFNRGEC
notes: V1 wt hIgG1, V2 kappa; also called DVD1272H; DVD1272L
B9: DVD1282 (bispecific antibody, human IgG1, kappa)
heavy: not shown
light: DIQMTQSPSSLSASVGDRVTITCRASGNIHNYLTWYQQTPGKAPKLLIYNAKTLADGVPSRFSGSGSGTDYTFTISSLQPEDIATYYCQHFWSIPYTFGQGTKLQITRTVAAPEIVLTQSPDFQSVTPKEKVTITCRASQNIGSELHWYQQKPDQSPKLLIKYASHSISGVPSRFSGSGSGTDFTLTINGLEAEDAATYYCHQSDTLPHTFGQGTKVDIKRTVAAPSVFIFPPSDEQLKSGTASVVCLLNNFYPREAKVQWKVDNALQSGNSQESVTEQDSKDSTYSLSSTLTLSKADYEKHKVYACEVTHQGLSSPVTKSFNRGEC
notes: V1 wt hIgG1, V2 kappa; also called DVD1282H; DVD1282L
B10: DVD1274 (bispecific antibody, human IgG1, kappa)
heavy: not shown
light: DIQMTQSPSSLSASVGDRVTITCRASGNIHNYLTWYQQTPGKAPKLLIYNAKTLADGVPSRFSGSGSGTDYTFTISSLQPEDIATYYCQHFWSIPYTFGQGTKLQITRTVAAPEIVLTQSPDFQSVTPKEKVTITCRASQDIGSELHWYQQKPDQPPKLLIKYASHSTSGVPSRFSGSGSGTDFTLTINGLEAEDAGTYYCHQTDSLPYTFGPGTKVDIKRTVAAPSVFIFPPSDEQLKSGTASVVCLLNNFYPREAKVQWKVDNALQSGNSQESVTEQDSKDSTYSLSSTLTLSKADYEKHKVYACEVTHQGLSSPVTKSFNRGEC
notes: V1 wt hIgG1, V2 kappa; also called DVD1274H; DVD1274L
B11: DVD1284 (bispecific antibody, human IgG1, kappa)
heavy: not shown
light: DIQMTQSPSSLSASVGDRVTITCRASGNIHNYLTWYQQTPGKAPKLLIYNAKTLADGVPSRFSGSGSGTDYTFTISSLQPEDIATYYCQHFWSIPYTFGQGTKLQITRTVAAPEIVLTQSPDFQSVTPKEKVTITCRASQNIGSELHWYQQKPDQSPKLLIKYASHSISGVPSRFSGSGSGTDFTLTINGLEAEDAATYYCHQSDTLPHTFGQGTKVDIKRTVAAPSVFIFPPSDEQLKSGTASVVCLLNNFYPREAKVQWKVDNALQSGNSQESVTEQDSKDSTYSLSSTLTLSKADYEKHKVYACEVTHQGLSSPVTKSFNRGEC
notes: V1 wt hIgG1, V2 kappa; also called DVD1284H; DVD1284L
B12: DVD1626 (bispecific antibody, human IgG1, kappa)
heavy: not shown
light: DIQMTQSPSSLSASVGDRVTITCRASSGIISYIDWFQQKPGKAPKRLIYATFDLASGVPSRFSGSGSGTDYTLTISSLQPEDFATYYCRQVGSYPETFGQGTKLEIKRTVAAPDTVVTQSPAFLSVTPGEKVTITCITSTDIDVDMNWYQQKPDQPPKLLISQGNTLRPGVPSRFSSSGSGTDFTFTISSLEAEDAATYYCLQSDNLPLTFGQGTKLEIKRTVAAPSVFIFPPSDEQLKSGTASVVCLLNNFYPREAKVQWKVDNALQSGNSQESVTEQDSKDSTYSLSSTLTLSKADYEKHKVYACEVTHQGLSSPVTKSFNRGEC
notes: DVD-Ig, outer AB273, inner AB271, linker set 3; V1 wt hIgG1, V2 kappa; also called DVD1626H; DVD1626L
B13: DVD1278 (bispecific antibody, human IgG1, kappa)
heavy: not shown
light: DTVVTQSPAFLSVTPGEKVTITCITSTDIDVDMNWYQQKPDQPPKLLISQGNTLRPGVPSRFSSSGSGTDFTFTISSLEAEDAATYYCLQSDNLPLTFGQGTKLEIKRTVAAPEIVLTQSPDFQSVTPKEKVTITCRASQDIGSELHWYQQKPDQPPKLLIKYASHSTSGVPSRFSGSGSGTDFTLTINGLEAEDAGTYYCHQTDSLPYTFGPGTKVDIKRTVAAPSVFIFPPSDEQLKSGTASVVCLLNNFYPREAKVQWKVDNALQSGNSQESVTEQDSKDSTYSLSSTLTLSKADYEKHKVYACEVTHQGLSSPVTKSFNRGEC
notes: DVD-Ig, outer AB271, inner AB274, linker set 1; V1 wt hIgG1, V2 kappa; also called DVD1278H; DVD1278L

Legend:
Recombinant Human IL-1β [1] = biological target: T1, Recombinant Human IL-1β (human, UniProt P01584 117-269); assay: Biacore SPR; C-terminal VD
T1 construct: bought reagent; also called IL-1B
Summary of the method: (§1)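 Rate constants fitted globally to a 1:1 Langmuir model from antigen series of 10−200 nM flowed at 25 μl/min over captured antibody or DVD-Ig (anti-mouse IgG Fcγ capture, ligand at 25 μg/ml).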

Recombinant Human IL-17 = biological target: T2, Recombinant Human IL-17 (human, UniProt Q16552 20-155, limits assumed); assay: Biacore SPR; N-terminal VD
T2 construct: bought reagent
T2 sequence (looked up): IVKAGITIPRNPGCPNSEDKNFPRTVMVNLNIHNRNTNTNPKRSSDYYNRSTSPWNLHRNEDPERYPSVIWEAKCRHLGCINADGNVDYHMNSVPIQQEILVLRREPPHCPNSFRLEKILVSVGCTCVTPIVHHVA
Summary of the method: as §1

Recombinant Human IL-1β [2] = biological target: T1, Recombinant Human IL-1β; assay: Biacore SPR; N-terminal VD
Summary of the method: as §1

Row | Binder | Kd (Recombinant Human IL-1β [1]) | koff (Recombinant Human IL-1β [1]) | kon (Recombinant Human IL-1β [1]) | Kd (Recombinant Human IL-17) | koff (Recombinant Human IL-17) | kon (Recombinant Human IL-17) | Kd (Recombinant Human IL-1β [2]) | koff (Recombinant Human IL-1β [2]) | kon (Recombinant Human IL-1β [2])
1 | B1 | 0.45 nM | 7.6e-05 s⁻¹ | 170000 M⁻¹ s⁻¹ | 0.0045 nM | 1.6e-05 s⁻¹ | 3.4e+06 M⁻¹ s⁻¹ | – | – | –
2 | B2 | 0.42 nM | 4.7e-05 s⁻¹ | 110000 M⁻¹ s⁻¹ | 0.005 nM | 1.6e-05 s⁻¹ | 3.2e+06 M⁻¹ s⁻¹ | – | – | –
3 | B3 | – | – | – | – | – | – | 0.077 nM | 0.00046 s⁻¹ | 6e+06 M⁻¹ s⁻¹
4 | B4 | – | – | – | – | – | – | 0.1 nM | 0.00054 s⁻¹ | 5.3e+06 M⁻¹ s⁻¹
5 | B5 | – | – | – | – | – | – | 0.082 nM | 0.00045 s⁻¹ | 5.6e+06 M⁻¹ s⁻¹
6 | B6 | – | – | – | – | – | – | 0.08 nM | 0.00063 s⁻¹ | 7.9e+06 M⁻¹ s⁻¹
7 | B7 | 1 nM | 0.00049 s⁻¹ | 490000 M⁻¹ s⁻¹ | 0.0055 nM | 2.2e-05 s⁻¹ | 4e+06 M⁻¹ s⁻¹ | – | – | –
8 | B8 | – | – | – | – | – | – | 0.03 nM | 4.5e-05 s⁻¹ | 1.5e+06 M⁻¹ s⁻¹
9 | B9 | – | – | – | – | – | – | 0.043 nM | 7.2e-05 s⁻¹ | 1.7e+06 M⁻¹ s⁻¹
10 | B10 | – | – | – | – | – | – | 0.031 nM | 4e-05 s⁻¹ | 1.3e+06 M⁻¹ s⁻¹
11 | B11 | – | – | – | – | – | – | 0.017 nM | 1.9e-05 s⁻¹ | 1.1e+06 M⁻¹ s⁻¹
12 | B12 | 1 nM | 0.00047 s⁻¹ | 470000 M⁻¹ s⁻¹ | 0.0034 nM | 1.6e-05 s⁻¹ | 4.8e+06 M⁻¹ s⁻¹ | – | – | –
13 | B13 | – | – | – | – | – | – | 0.069 nM | 0.00047 s⁻¹ | 6.9e+06 M⁻¹ s⁻¹

— patent US20120034160A1 (AbbVie / Abbott, published 2012)
